# B1: TIR domain of MyD88 (TIR_(MyD88); residues 153–296) (domain or fragment, human, UniProt Q99836-1 153-296, looked up)
# chain: PLGHMPERFDAFICYCPSDIQFVQEMIRQLEQTNYRLKLCVSDRDVLPGTCVWSIASELIEKRCRRMVVVVSDDYLQSKECDFQTKFALSLSPGAHQKRLIPIKYKAMKKEFPSILRFITVCDYTNPCTKSWFWTRLAKALSLP
# notes: human MyD88, TIR domain, amino acids 153–296; Self-assembles into antiparallel double-stranded filaments, double-layered rings and cylindrical fibers; also called WT TIR_(MyD88); Toll/interleukin-1 receptor domain of MyD88
# Target: the molecule itself
# Assay: high-speed AFM; 10–200 μM TIR_(MyD88) adsorbed on mica for 10 min; 20 mM HEPES pH 7.0, 50 mM NaCl, 10 mM DTT; room temperature
protein,measurement,value
B1,stoichiometry N,58
